Substitutions are numbered along the chain they refer to. Names and notes keep the numbering of the source. Where two headings read alike, the source gives them in different places.
Experiments:
AnFAO_15309 [1] = biological target: T1, AnFAO_15309 (Aspergillus niger, UniProt A2R252); assay: Kinetic analysis of recombinant AnFAO_15309; format: biochemical
Procedure: (§1) Absorbance was monitored at 571 nm every 10 mins for 1 hr. A standard curve consisting of 0-10 μM H2O2 was included to determine the absorbance for every μmol of H2O2 generated by the reaction.
The resulting mixture was twice extracted with equal volumes of ethyl acetate, dried, and re-suspended in reaction buffer.

AnFAO_15309 [2] = biological target: T1, AnFAO_15309; format: biochemical; conditions: 20 nM enzyme, 50 μM substrate, pH 7.0, 1 hr
Procedure: as §1

[3] = system: fumonisin deamination activity from A. niger culture supernatants; assay: Fumonisin chemotype preference of deamination activity, reverse-phase LC-MS; format: biochemical, Aspergillus niger; conditions: for initial conversion rate of intact to deaminated fumonisin: FB1 and FB2 co-incubated at 37° C. with active sample following high-resolution ion exchange, n=2
Procedure: After each step, protein fractions were assayed for deamination activity by monitoring their ability to convert intact FB2 into FPy2 via reverse-phase liquid chromatography/mass spectrometry (LC-MS), as shown in FIG. 2. In particular, all MS data were collected with a Q-Exactive™ Quadrupole Orbitrap™ mass spectrometer (Thermo Scientific, MA, USA) coupled to an Agilent 1290 ultra-high-performance liquid chromatography (UHPLC) system. Fumonisins were resolved on a Zorbax™ Eclipse Plus Rapid Resolution High Definition (RRHD) C18 column (2.1×50 mm, 1.8 μm; Agilent Technologies, CA, USA), maintained at 35° C. The mobile phase was comprised of water with 0.1% formic acid (A), and acetonitrile with 0.1% formic acid (B) (Optima grade, Fisher Scientific, NJ, USA). The gradient consisted of 0% B for 0.5 min before increasing to 100% over 3 min, held at 100% for 2.5 min and reduced to 0% over 0.5 min. The fumonisins were detected in negative ionization mode using the following electrospray conditions: capillary voltage, 4.0 kV; capillary temperature, 400° C.; sheath gas, 17.00 units; auxiliary gas, 8.00 units; probe heater temperature, 450° C.; S Lens RF level, 45.00. The data-dependent acquisition method involved a full MS scan at 17,500 resolution over a scan range of 140-760 m/z; automatic gain control (AGC) target and maximum injection time (max IT) was 5×10^6 and 64 ms, respectively. The five highest intensity ions from the full scan (excluding isotopes) were sequentially selected using a 1.2 m/z isolation window and analyzed at a resolution of 17,500; AGC target, 1×10^5; max IT, 64 ms; normalized collision energy (NCE) 30; threshold intensity 9.1×10^4; and dynamic exclusion of 1.5 s. Fumonisins were detected by accurate mass (±5 ppm) and retention time (±0.1 min) and verified by MS/MS.
All samples assayed during protein purification were incubated at 37° C. with 1 μM FB2 (Sigma) unless stated otherwise. Reactions were terminated via addition of a 10-fold volume excess of 50% (v:v) methanol in water prior to reverse-phase LC/MS analysis represented in FIG. 2.

[4] = substrate: CCCCCCCCCCCCCCC[C@@H](O)[C@@H](N)CO; assay: purified protein, by the assay type; conditions: other: recombinant AnFAO_15309; pH 7.0
[5] = substrate: CCCC[C@@H](C)[C@@H](O)[C@@H](O)C[C@@H](C)C[C@H](O)CCCC[C@@H](O)C[C@H](O)[C@H](C)N; assay: purified protein, by the assay type; conditions: other: recombinant AnFAO_15309; pH 7.0
[6] = Amplex red assay of AnFAO homolog clones; format: biochemical
Description: Seven of the AnFAO homologs were synthesized and cloned into the MBP-TEV vector for recombinant expression in E. coli.

[7] = Circular dichroism thermal denaturation; format: physicochemical; conditions: 0.3 mg/ml, 20 mM Tris-HCl (pH 7.4), 50 mM NaCl, 0.75 mM DTT, monitored at 222, 20 to 95° C.
Procedure: (§2) Activity was measured via reverse-phase LC/MS analysis. […] All proteins were scanned at a concentration of 0.3 mg/ml in buffer containing 20 mM Tris-HCl (pH 7.4), 50 mM NaCl and 0.75 mM DTT. Thermal denaturation was monitored at […] with a temperature scan ranging from 20 to 95° C., increasing by 1° C. per minute with data collection every 30 seconds. Baseline corrected data were converted from millidegrees to mean residue ellipticity, and thermal denaturation curves were produced by nonlinear regression in Graphpad Prism.

[8] = FB2 deamination by purified recombinant AnFAO, reverse-phase LC/MS; format: biochemical; conditions: 6 nM enzyme, 1 μM FB2, 0.1 mg/ml catalase, 1 h at 37° C.
Procedure: In particular, all MS data were collected with a Q-Exactive™ Quadrupole Orbitrap™ mass spectrometer (Thermo Scientific, MA, USA) coupled to an Agilent 1290 ultra-high-performance liquid chromatography (UHPLC) system. Fumonisins were resolved on a Zorbax™ Eclipse Plus Rapid Resolution High Definition (RRHD) C18 column (2.1×50 mm, 1.8 μm; Agilent Technologies, CA, USA), maintained at 35° C. The mobile phase was comprised of water with 0.1% formic acid (A), and acetonitrile with 0.1% formic acid (B) (Optima grade, Fisher Scientific, NJ, USA). The gradient consisted of 0% B for 0.5 min before increasing to 100% over 3 min, held at 100% for 2.5 min and reduced to 0% over 0.5 min. The fumonisins were detected in negative ionization mode using the following electrospray conditions: capillary voltage, 4.0 kV; capillary temperature, 400° C.; sheath gas, 17.00 units; auxiliary gas, 8.00 units; probe heater temperature, 450° C.; S Lens RF level, 45.00. […] The five highest intensity ions from the full scan (excluding isotopes) were sequentially selected using a 1.2 m/z isolation window and analyzed at a resolution of 17,500; AGC target, 1×10^5; max IT, 64 ms; normalized collision energy (NCE) 30; threshold intensity 9.1×10^4; and dynamic exclusion of 1.5 s. Fumonisins were detected by accurate mass (±5 ppm) and retention time (±0.1 min) and verified by MS/MS. […]

[9] = Fumonisin deamination activity of AnFAO with or without excess FAD; format: biochemical; conditions: enzyme dialyzed in 20 mM MES (pH 6), 150 mM NaCl with additional 50 μM FAD
Description: The whole mass of AnFAO following denaturation and LC-MS analysis was 51,320.70 Da, which matches the predicted mass of the apo-enzyme (51,320.97 Da) as shown in FIG. 12D. […] AnFAO also lacked the requisite Histidine or Tyrosine residues for covalent 6α-linkages to the FAD backbone, as observed in other covalent flavoproteins (Heuts et al., 2009).

[10] = Effect of temperature on fumonisin deamination activity, reverse-phase LC/MS; format: biochemical; conditions: 6 nM enzyme
Procedure: as §2

[11] = Procedure: (§3) 98 μL of this solution was added to 2 μL of a stock of FB2 in a microfuge tube (2.5 mM) and incubated at 30° C. for 30 mins. At the end of the incubation time, 20 μL of the reaction was diluted with 80 μL of 50 mM HEPES pH 7.0, 150 mM NaCl and 100 μL of this was added in triplicate to wells of a 96-well microplate. 100 μL of Amplex™ red reaction buffer consisting of 50 mM HEPES pH 7.0, 150 mM NaCl, 200 μM Amplex™ red, 2 U/ml horseradish peroxidase was immediately added to each well and absorbance was measured at 571 nm. Rates were calculated based on an H2O2 standard curve and the incubation time taking into account the dilution factors. […] 100 μL of protein sample was added to wells in triplicate in a 96-well microplate. 100 μL of Amplex™ red reaction buffer consisting of 50 mM HEPES pH 7.0, 200 μM Amplex™ red, 2 U/ml horseradish peroxidase and 50 μM FB2 was then added to each well and absorbance was monitored at 571 nm every 10 mins for 1 hr. A standard curve consisting of 0-10 μM H2O2 was included to determine the absorbance for every pmol of H2O2 generated by the reaction.
[12] = NaCl dependence of fumonisin deamination activity, Amplex red; format: biochemical
Procedure: as §3

[13] = 1 μM enzyme, room temperature, 16 h, corn material in water
Procedure: Following incubation, 700 μls of extraction solution (78% acetonitrile, 2% ethyl acetate) was added to each sample and incubated at 37° C. with shaking for 45 minutes. This mixture was then centrifuged at 20,000×g and 400 μls of the cleared supernatant was mixed with an equal volume of 50% methanol. Samples were then analyzed for fumonisin contamination by reverse phase HPLC-MS as previously described.

[14] = Ethanol tolerance of deamination activity, reverse phase LC/MS

CCCCCCCCCCCCCCC[C@@H](O)[C@@H](N)CO [sphinganine]
fold change (efficiency compared to FB2) (AnFAO_15309 [1]): 16.6 fold
kcat (AnFAO_15309 [1]; recombinant AnFAO_15309): 0.612 s⁻¹

NCCCCNCCCN [spermidine]
relative activity, relative to FB3 (100% activity) (AnFAO_15309 [2]): 1.4%

CCCC[C@@H](C)[C@@H](OC(=O)CC(CC(=O)O)C(=O)O)[C@H](C[C@@H](C)C[C@H](O)CCCCCC[C@@H](O)[C@H](C)N)OC(=O)CC(CC(=O)O)C(=O)O (some centres unmarked) [FB3]
relative activity, relative to FB3 (100% activity) (AnFAO_15309 [2]): 100%

CCCC[C@@H](C)[C@@H](OC(=O)C[C@@H](CC(=O)O)C(=O)O)[C@H](C[C@@H](C)CCCCCC[C@@H](O)C[C@H](O)[C@H](C)N)OC(=O)C[C@@H](CC(=O)O)C(=O)O [FB2, fumonisin B2]
initial conversion rate of intact to deaminated fumonisin [3]: 24.3±1.5 % hr^−1
chemotype preference for FB2 compared to FB1 ([3]; co-incubation of FB1 and FB2 at 37° C.): order of magnitude
fold change (efficiency compared to FB2) (AnFAO_15309 [1]; kcat/KM relative to FB2 = 1.0): 1.0 fold
Km (AnFAO_15309 [1]; recombinant AnFAO_15309): 195 µM
kcat (AnFAO_15309 [1]; recombinant AnFAO_15309): 0.228 s⁻¹
efficiency at deaminating FB2 compared to FB1 (AnFAO_15309 [1]; relative to FB1): 3.2 fold
increase in catalytic efficiency (kcat) FB2 vs. FB1 (AnFAO_15309 [1]; relative to FB1): ~1.6 fold
stronger affinity (KM) FB2 vs. FB1 (AnFAO_15309 [1]; relative to FB1): ~2 fold

NCCc1c[nH]c2ccc(O)cc12 [serotonin]
relative activity, relative to FB3 (100% activity) (AnFAO_15309 [2]): 3.7%

N[C@H]1C(O)O[C@H](CO)[C@@H](O)[C@@H]1O (some centres unmarked) [glucosamine]
relative activity, relative to FB3 (100% activity) (AnFAO_15309 [2]): 1.2%

CCCN [propylamine]
relative activity, relative to FB3 (100% activity) (AnFAO_15309 [2]): 5.6%

NCc1ccccc1 [benzylamine]
relative activity, relative to FB3 (100% activity) (AnFAO_15309 [2]): 1.4%

NCCCNCCCCNCCCN [spermine]
relative activity, relative to FB3 (100% activity) (AnFAO_15309 [2]): 1.9%

CCCC[C@@H](C)[C@@H](O)[C@@H](O)C[C@@H](C)C[C@H](O)CCCC[C@@H](O)C[C@H](O)[C@H](C)N [hFB1]
fold change (efficiency compared to FB2) (AnFAO_15309 [1]; kcat/KM relative to FB2 = 1.0): 4.6 fold
kcat (AnFAO_15309 [1]; recombinant AnFAO_15309): 0.298 s⁻¹

NCCc1ccc(O)c(O)c1 [dopamine]
relative activity, relative to FB3 (100% activity) (AnFAO_15309 [2]): 9.7%

Fumonisin B1 [FB1]
initial conversion rate of intact to deaminated fumonisin [3]: 2.1±0.1 % hr^−1
fold change (efficiency compared to FB2) (AnFAO_15309 [1]; kcat/KM relative to FB2 = 1.0): 0.3 fold

NCCCC[C@H](N)C(=O)O [lysine]
relative activity, relative to FB3 (100% activity) (AnFAO_15309 [2]): 6.3%

NCCc1ccc(O)cc1 [tyramine]
relative activity, relative to FB3 (100% activity) (AnFAO_15309 [2]): 5.8%

B1: AnFAO_15309 (Aspergillus niger CBS 513.88) (protein)
chain: MSVSNDPTTKLYDAVIVGAGLSGLQAAHSIQAAGFSVCILEATDRMGGKTLTVKSSEKGYNDLGAAWVNDTNQTEIFKLHQRYGLDGVVQYTCGDDILESGEGVIRKIPYGLPLTGLPKKLLDILRIESSRLDLDDPTSFPGATEVDNLTFRDFCVEKTGSEDVIHITDAISTALLGLNSNELSALYMLYYFKSGSGIDNLLSDERDGAQYLRTRQGTQTIARKMADELTQSDIFLGMPVTSINQTDADAHCVVQTLDGSSFRCRRVIVSIPTTLYRSVSFHPPLPHAKQVLSDHTIMGYYSKVIFIFKEPWWRDAGLTGIVNCAGGPITFTRDTSVPTDDQWSITCFMVGSRGRAWSKLSKDDRYSQVWEQFRRCFEEFVENIPEPVNTLEMEWSKEPYFLGAPCPAMIPGLLTTAGSDLAAPHGKVHFIGTETSTVWRGYMEGAIRAGQRGGAEVVTALQED
Km [4]: 31.4 µM
kcat [4]: 0.612 s⁻¹
kcat/Km [4]: 19000 M⁻¹ s⁻¹
Km [5]: 55.2 µM
kcat [5]: 0.298 s⁻¹
kcat/Km [5]: 5400 M⁻¹ s⁻¹

B2: AnFAO_6142: AnFAO homolog clone, SEQ ID NO: 28, identical to AnFAO_10929; substitutions M46V, R82Q, V267L vs AnFAO_15309 (protein)
chain: B1 chain with M46V, R82Q, V267L
modifications: Aspergillus niger
notes: substitutions M46V, R82Q, V267L vs AnFAO_15309
activity compared to AnFAO_15309 (fold) ([6]; 80 nM enzyme, 25 μM FB1, pH 7): 2.5 ×
relative activity ([6]; relative to AnFAO_15309 = 1): (relative activity = 2.5):
melting temperature [7]: 76 °C

B3: AnFAO_15309 (protein)
chain: B1 chain
modifications: codon-optimized; AnFAO_15309 codon optimized for Saccharomyces cerevisiae
conversion of FB2 into FPy2 [8]: Full conversion
change in fumonisin deamination activity with additional FAD [9]: No difference
optimal temperature of FB2 deamination ([10]; 2 μM FB2): 50 °C
of maximal activity at 21° C. ([10]; 2 μM FB2, 21° C.): ca. 35%
of maximal activity at 60° C. ([10]; 2 μM FB2, 60° C.): 52%
activity at 95° C. ([10]; 2 μM FB2, 95° C.): No activity
melting temperature [7]: 71 °C
optimal pH of activity ([11]; 300 nM enzyme, FB2, 30° C., 30 mins): 6
activity remaining at pH 3.5 ([11]; Citrate pH 3.5): ca. 20%
activity remaining at pH 9.0 ([11]; Pyrophosphate pH 9): ca. 30%
of maximum activity at 0 mM NaCl ([12]; 0 mM NaCl): 70%
NaCl concentration of optimal activity ([12]; 50 mM HEPES pH 7.0, FB2): 50 mM
of maximum activity at 1 M NaCl ([12]; 1 M NaCl): 66%
intact fumonisins remaining after treatment [13]: no intact fumonisins remained
intact fumonisins remaining after treatment ([13]; listed as AnFAO): No intact fumonisin remained
activity remaining at 5% EtOH ([14]; 10 nM enzyme, 1 μM FB2, 30 minutes at 37° C., 5% EtOH): 71%
activity remaining at 10% EtOH ([14]; 10 nM enzyme, 1 μM FB2, 30 minutes at 37° C., 10% EtOH): 43%
activity remaining at 20% EtOH ([14]; 10 nM enzyme, 1 μM FB2, 30 minutes at 37° C., 20% EtOH): 12%
deamination activity at 30% EtOH ([14]; 30% EtOH): Negligible amounts
deamination activity at 40% EtOH ([14]; 40% EtOH): Negligible amounts

B4: AnFAO_7097: AnFAO homolog clone, SEQ ID NO: 29 (protein)
chain: B1 chain with M46V, R82Q, N323D, F377L, E379G, V388A, A417T
modifications: Aspergillus niger
activity compared to 15309 ([6]; 80 nM enzyme, 25 μM FB1, pH 7): 27%

B5: AnFAO_10927: AnFAO homolog clone, SEQ ID NO: 27 (protein)
chain: B1 chain with M46V, T230S, Q255K, N323D, C376F, V388A
modifications: Aspergillus niger
activity compared to 15309 ([6]; 80 nM enzyme, 25 μM FB1, pH 7): 31%
melting temperature [7]: 76 °C
